Data: the Human Domainome abundance scans (Beltran et al. 2025)

B1: SH3 and PX domain-containing protein 2B, residues 155 to 209; numbered along this chain, A1X283 (parent)
chain: EQYVVVANYQKQESSEISLSVGQVVDIIEKNESGWWFVSTAEEQGWVPATCLEGQ

Variants of: B1
Assay: abundance fitness (aPCA) (normalised: wild type 0, dead -1); higher = more abundant; growth selection in yeast, the domain comes from the species named
Conditions: Homo sapiens

Abundance fitness of substitutions, site by site:
A41: I 0.045, V -0.127, N -0.244, D -0.273, Q -0.133, E 0.069, M -0.084, L -0.041, S 0.034, G -0.122, W -0.376, T 0.015, H -0.009, K -0.157, F -0.113
E42: C -0.064, M -0.048, S 0.07, W -0.118, K -0.057, G -0.037, A -0.057, P -0.431, H 0.063, Q 0.019, I -0.387, D 0.086, Y -0.163
E32: D -0.047, R -0.108, T -0.122, K -0.326, I -0.066, C -0.152, V 0.038, G 0.001, A 0.027, P -0.084, N -0.078, M -0.188, S -0.07, Y -0.345, Q 0.001, W -0.353, H -0.139
S39: R -0.009, G -0.107, C -0.022, K -0.035, L -0.329, W -0.371, I -0.297, P -0.864, F -0.241, D -0.113, A -0.08, T -0.039, Y -0.312, N -0.022, M -0.018, E 0.013, V -0.414
E29: D -0.104, Y -0.502, Q 0.05, R 0.084, K 0.022, G -0.19, T -0.037, A -0.056, M -0.417, C -0.205, F -0.691, L -0.123, S -0.114, N 0.021, W -0.097, H 0.056, V -0.258, P -0.974, I 0.133
V25: H -0.656, W -0.983, N -0.95, K -0.902, F -0.964, G -0.878, C -0.393, I -0.317, S -0.95, E -0.752, P -0.825, M -0.801, L -0.378, R -0.945, T -0.513
F37: S -0.109, Y 0.061, H -0.068, C -0.127, K 0.066, A -0.174, D -0.347, I -0.181, T -0.472, M -0.069, L 0.03, E -0.237, Q 0.036, R 0.06
N31: D -0.116, P -0.194, Y -0.255, E -0.122, K -0.028, T -0.154, W -0.367, V -0.158, L -0.092, I -0.401, Q -0.188, H -0.095, C 0.035, A -0.114, R -0.007, F -0.259, M -0.009
T40: A -0.124, N -0.137, K -0.035, Y -0.151, H -0.15, Q 0.063, V -0.042, E -0.337, F 0.02, P -0.699, M -0.065, S 0.015, W -0.354, G -0.19, I -0.121, C -0.201, D -0.234, L -0.031
G34: K -0.169, F -0.598, S -0.208, H -0.327, E -0.147, Q -0.458, A -0.189, T -0.393, W -0.708, M -0.216, V -0.676, Y -0.492, P -0.249, R -0.306, I -0.579, N -0.538, L -0.423, D -0.125
D26: E -0.112, N 0.146, Q -0.052, H -0.214, P -0.928, C -0.269, A -0.054, I -0.508, K 0.028, R -0.103, V -0.179, L -0.078, T -0.109, S -0.122, F -0.262, M -0.134, G -0.126, Y -0.272
W35: H 0.013, E -0.173, Y -0.22, D -0.182, T -0.191, R 0.045, V -0.118, L -0.073, I -0.195, N -0.193, G -0.398, C -0.062, Q 0.04, F -0.005, S -0.04, A -0.172, M 0.027, P -0.621
E43: H -0.021, P -0.856, N 0.017, R -0.111, K -0.167, M -0.117, D 0.087, G 0.041, I -0.155, Q 0.065, A -0.038, L -0.263, F -0.265
W36: S -0.211, Y -0.099, A -0.104, L -0.2, H -0.429, C -0.11, G -0.767, N -0.367, I -0.139, D -0.403, K -0.889, M -0.202, T -0.234, F 0.083, R -0.462, V 0.009, Q -0.71
S33: I -0.393, C -0.266, F -0.229, Y -0.074, M -0.272, L -0.242, Q 0.074, P -0.5, E -0.002, H -0.046, K 0.058, V -0.212, W -0.387, T -0.086, D 0.095, N -0.09, G -0.088
I28: A -0.319, H -0.052, E -0.475, T -0.116, Q -0.042, G -0.211, K -0.008, D -0.451, C -0.13, R -0.211, S -0.337, P -0.822, L -0.041, N -0.229, F -0.214, Y -0.462, V 0.027, M -0.125
K30: F -0.357, P -0.495, I -0.276, T -0.008, D -0.767, L -0.548, G -0.398, Q -0.027, Y 0.029, R -0.049, V -0.273, W -0.58, E -0.17
V38: L -0.736, N -0.895, Q -1.08, W -1.02, Y -0.921, T -0.875, I -0.319, K -1.03, G -0.363, D -0.736, E -0.76, H -1.13, R -0.963, C -0.298, P -1.14, F -0.915, A -0.07
Q23: T -0.085, W -0.292
V24: P -0.135, H -0.284, M -0.137, C -0.035, N 0.001, Y -0.263, R -0.135, A -0.008, G -0.157, Q -0.215, I -0.026, F -0.239, K 0.069, S -0.071, E 0.027, T -0.109, D -0.277, L -0.128, W -0.075
I27: Q -0.609, T -0.183, C -0.001, A 0.037, D -1.05, R -0.277, K -0.617, M -0.185, V 0.055, S -0.404, Y -0.149, E -0.944, W -0.477, H -0.908, G -0.351, L -0.099, F -0.145, P -0.008, N -0.899
